From IntAct's records for PubMed 11278869

B1: Ropporin-1B (Homo sapiens), Q9BZX4 (parent)
chain: MAQTDKPTCIPPELPKMLKEFAKAAIRAQPQDLIQWGADYFEALSRGETPPVRERSERVALCNWAELTPELLKILHSQVAGRLIIRAEELAQMWKVVNLPTDLFNSVMNVGRFTEEIEWLKFLALACSALGVTITKTLKIVCEVLSCDHNGGLPRIPFSTFQFLYTYIAEVDGEICASHVSRMLNYIEQEVIGPDGLITVNDFTQNPRVWLE
B2: A-kinase anchor protein 3 (Homo sapiens), O75969 (parent)
chain: MSEKVDWLQSQNGVCKVDVYSPGDNQAQDWKMDTSTDPVRVLSWLRRDLEKSTAEFQDVRFKPGESFGGETSNSGDPHKGFSVDYYNTTTKGTPERLHFEMTHKEIPCQGPRAQLGNGSSVDEVSFYANRLTNLVIAMARKEINEKIDGSENKCVYQSLYMGNEPTPTKSLSKIASELVNETVSACSRNAAPDKAPGSGDRVSGSSQSPPNLKYKSTLKIKESTKERQGPDDKPPSKKSFFYKEVFESRNGDYAREGGRFFPRERKRFRGQERPDDFTASVSEGIMTYANSVVSDMMVSIMKTLKIQVKDTTIATILLKKVLLKHAKEVVSDLIDSFLRNLHSVTGTLMTDTQFVSAVKRTVFSHGSQKATDIMDAMLRKLYNVMFAKKVPEHVRKAQDKAESYSLISMKGMGDPKNRNVNFAMKSETKLREKMYSEPKSEEETCAKTLGEHIIKEGLTLWHKTQQKECKSLGFQHAAFEAPNTQRKPASDISFEYPEDIGNLSLPPYPPEKPENFMYDSDSWAEDLIVSALLLIQYHLAQGGRRDARSFVEAAGTTNFPANEPPVAPDESCLKSAPIVGDQEQAEKKDLRSVFFNFIRNLLSETIFKRDQSPEPKVPEQPVKEDRKLCERPLASSPPRLYEDDETPGALSGLTKMAVSQIDGHMSGQMVEHLMNSVMKLCVIIAKSCDASLAELGDDKSGDASRLTSAFPDSLYECLPAKGTGSAEAVLQNAYQAIHNEMRGTSGQPPEGCAAPTVIVSNHNLTDTVQNKQLQAVLQWVAASELNVPILYFAGDDEGIQEKLLQLSAAAVDKGCSVGEVLQSVLRYEKERQLNEAVGNVTPLQLLDWLMVNL

Variants of: B1
Conditions: with akap3_human AKAP3, O75969

Variant	effect of a mutation on the interaction
L18A	decreasing interaction

Variants of: B2
Conditions: with rop1b_human ROPN1B, Q9BZX4

Variant	effect of a mutation on the interaction
L131P	decreasing interaction

Variants of: B2
Conditions: with kap2_human PRKAR2A

Variant	effect of a mutation on the interaction
L131P	decreasing interaction
